Assays:
[1] = target: recombinant human IL-17 (Peprotech #200-17) (human) (UniProt Q16552); assay: ELISA, coated IL-17 subtype 0.5 µg/ml, antibody 10 µg/ml, OD 405/492 nm
[2] = target: recombinant human IL-17 (Peprotech #200-17) (human) (UniProt Q16552); assay: cell-based or functional assay
Human IL17B (human) = Human IL17B (human) (UniProt Q9UHF5); assay: ELISA, coated IL-17 subtype, antibody 10 µg/ml, OD 405/492 nm
Human IL17F (human) = Human IL17F (human) (UniProt Q96PD4); assay: as above
Human IL17E (human) = Human IL17E (human) (UniProt Q9H293); assay: as above
Human IL17D (human) = Human IL17D (human) (UniProt Q8TAD2); assay: as above
Human IL17C (human) = Human IL17C (human) (UniProt Q9P0M4); assay: as above
[3] = target: cynomolgous IL-17A (cynomolgous); assay: binding ELISA according to example 2; human and humanized IL17 antibodies compared (NVP-AIN-497 = 100)
[4] = target: recombinant human IL-17 (Peprotech #200-17) (human) (UniProt Q16552); assay: as above
[5] = target: cynomolgous IL-17A (cynomolgous); assay: binding ELISA according to example 2; mouse IL17 antibodies compared (Mab 317 = 100)
[6] = target: recombinant human IL-17 (Peprotech #200-17) (human) (UniProt Q16552); assay: as above

Sequence of recombinant human IL-17 (Peprotech #200-17) (human) (Q16552 20-155 limits assumed): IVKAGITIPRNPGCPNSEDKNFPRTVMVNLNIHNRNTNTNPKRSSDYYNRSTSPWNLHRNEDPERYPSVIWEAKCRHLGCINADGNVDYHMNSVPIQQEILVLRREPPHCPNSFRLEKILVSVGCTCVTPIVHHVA
Sequence of Human IL17C (human) (Q9P0M4 19-197 limits assumed): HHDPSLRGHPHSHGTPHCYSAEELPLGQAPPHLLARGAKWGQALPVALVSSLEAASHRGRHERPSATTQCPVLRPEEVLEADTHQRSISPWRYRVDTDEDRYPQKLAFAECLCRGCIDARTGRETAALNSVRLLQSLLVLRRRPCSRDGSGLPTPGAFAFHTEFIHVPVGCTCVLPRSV
Sequence of Human IL17B (human) (Q9UHF5 21-180 limits assumed): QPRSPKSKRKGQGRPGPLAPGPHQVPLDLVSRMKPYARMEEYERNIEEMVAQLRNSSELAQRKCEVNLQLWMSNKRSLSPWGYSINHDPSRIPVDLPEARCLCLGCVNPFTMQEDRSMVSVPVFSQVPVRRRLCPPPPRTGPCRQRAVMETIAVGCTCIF
Sequence of Human IL17F (human) (Q96PD4 31-163 limits assumed): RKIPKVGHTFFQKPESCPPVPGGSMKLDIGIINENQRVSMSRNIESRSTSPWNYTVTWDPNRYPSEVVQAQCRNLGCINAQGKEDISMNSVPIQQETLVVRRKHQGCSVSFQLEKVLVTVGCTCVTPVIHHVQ
Sequence of Human IL17E (human) (Q9H293 33-177 limits assumed): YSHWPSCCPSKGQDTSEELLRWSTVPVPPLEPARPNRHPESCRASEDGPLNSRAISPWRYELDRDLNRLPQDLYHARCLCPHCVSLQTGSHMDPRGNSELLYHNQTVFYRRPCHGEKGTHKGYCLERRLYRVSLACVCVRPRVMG
Sequence of Human IL17D (human) (Q8TAD2 16-202 limits assumed): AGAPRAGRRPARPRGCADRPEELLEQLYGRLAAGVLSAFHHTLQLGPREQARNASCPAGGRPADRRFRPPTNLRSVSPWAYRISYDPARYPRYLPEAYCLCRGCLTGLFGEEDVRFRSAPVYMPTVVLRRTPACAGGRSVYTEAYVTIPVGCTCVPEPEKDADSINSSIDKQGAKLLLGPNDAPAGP

Question: For MAB 317 of R&D Systems (antibody), which Binding (IL-17A binding set as 100) (% of IL-17A binding) [1] is on record?
Answer: The Binding (IL-17A binding set as 100) (% of IL-17A binding) was 100.

Question: And the IL-6 Inhibition IC50 (nM) (CCD-25SK cells, IL-17A + TNF-alpha) [2]?
Answer: The IL-6 Inhibition IC50 (nM) (CCD-25SK cells, IL-17A + TNF-alpha) was 2.8 nM.

Question: How did the Binding (IL-17A binding set as 100) (% of IL-17A binding) [1] turn out when “Mab 16-7178-85 of eBioscience (antibody)” was run?
Answer: Its Binding (IL-17A binding set as 100) (% of IL-17A binding) is 100.

Question: And the Binding (IL-17A binding set as 100) (% of IL-17A binding) (Human IL17B (human))?
Answer: Its Binding (IL-17A binding set as 100) (% of IL-17A binding) is 7.

Question: What about the Binding (IL-17A binding set as 100) (% of IL-17A binding) (Human IL17F (human)) of the same substance?
Answer: The Binding (IL-17A binding set as 100) (% of IL-17A binding) was 5.

Question: And the Binding (IL-17A binding set as 100) (% of IL-17A binding) (Human IL17E (human))?
Answer: Its Binding (IL-17A binding set as 100) (% of IL-17A binding) is 5.

Question: What about the Binding (IL-17A binding set as 100) (% of IL-17A binding) (Human IL17D (human)) of the same substance?
Answer: Its Binding (IL-17A binding set as 100) (% of IL-17A binding) is 6.

Question: And the Binding (IL-17A binding set as 100) (% of IL-17A binding) (Human IL17C (human))?
Answer: The Binding (IL-17A binding set as 100) (% of IL-17A binding) was 97.

Question: NVP-AIN-497 (WO 2006/013107) (antibody) was tested. Which Relative binding to cynomolgous IL-17A [3] did it give?
Answer: Its Relative binding to cynomolgous IL-17A is 100%.

Question: What about the Relative binding to human IL-17A [4] of the same substance?
Answer: The Relative binding to human IL-17A was 100%.

Question: And the Binding (IL-17A binding set as 100) (% of IL-17A binding) [1]?
Answer: Its Binding (IL-17A binding set as 100) (% of IL-17A binding) is 100.

Question: And the Binding (IL-17A binding set as 100) (% of IL-17A binding) (Human IL17B (human))?
Answer: The Binding (IL-17A binding set as 100) (% of IL-17A binding) was 2.

Question: And the Binding (IL-17A binding set as 100) (% of IL-17A binding) (Human IL17F (human))?
Answer: Its Binding (IL-17A binding set as 100) (% of IL-17A binding) is 62.

Question: What about the Binding (IL-17A binding set as 100) (% of IL-17A binding) (Human IL17E (human)) of the same substance?
Answer: The Binding (IL-17A binding set as 100) (% of IL-17A binding) was 3.

Question: What about the Binding (IL-17A binding set as 100) (% of IL-17A binding) (Human IL17C (human)) of the same substance?
Answer: The Binding (IL-17A binding set as 100) (% of IL-17A binding) was 2.

Question: Which results are given for eBio64CAP17 (antibody)?
Answer: Relative binding to cynomolgous IL-17A in % [5]: 124%; Relative binding to human IL-17A in % [6]: 122%

— patent publication US20150132307A1
